Measured values as given in patent publication US20250051821.

B1: IFF21334 (protein)
chain: ILDKPVIQPNFPGNGLASLGQGLMDNLSPTHSTWDDWGAGWIPQDCKSLVEGAGFSASDVIPFNIHYDDCAQTWTFCRHKDSPLSEITILDIFGRLPVRMRSFVRHLVFIPGNKSAGSSGDNVLMVGAVDVTVFAHEIGHSLDSHAFDPSYGVPFSTGNVWISNYNLDSAVTDPYAQTSQQENFAQETVVSLYDKVVPGGIGTIQPNWQAIYHQYATLEGYIGDVIIPGGTCTHRLTDSPPVQMSSSSKLRRALGPKPHVALSPEVEEIEAIPMKSSITMTSFDAAGKPNGTYVINL
B2: IFF21354 (protein)
chain: RLDKPVIKPPFPNGGLGSLGPDLMSSLKVASHTTDDWDKNHLPRDCKSLAQNAGFSPLDVSAFNIHYDDCKSQPWVFCRHKDSPLSKKDMTELFGRMPVRMRQFIRHIIALPGQRSAGSSGDNIQMNGDVEITVFIHETGHSLDSHAFDPKLGAPFSNGKAWTDAYNKDSAVTDDYAQTSQQENFAQETVVSVYDKNVKGGIGKIQPNAQAIRNAYTTLEKYIGNIIIPGGVCTHRLENSPSVPKADSARTRLVPKSEPVGEGLTRIEPIAMGPITPASY
B3: IFF21343 (protein)
chain: NLDKPVIQPNFPGNGLASLGQGLMDHLAPTHSTWDDWGAGWIPQDCKSMAQGAGFSANDIIPFNIHYDDCAQSWTFCRHKNSPLSELQILDIFGRLPVRMRSFVRHLVFVPGNKSAGSNGDNVLMVGAVDVTVFAHEIGHSLDSHAFDPSYGVPFSTGSVWTSNYNLDSAVPDPYAQTSQQENFAQETVVSLYDKVVPGGIGTIQPNWKAIFHQYATLQGYIGNVIIPGGTCTHRLTDSPPVTMSSAKLRRGLGPKPNVSLSPKVKEIESIPMESSITMTSFDEHGKPNGTYVVHLK
B4: IFF21351 (protein)
chain: ALNKPVIQPNFPGNGLASLGQGIMQHLTPTQSTWDDWGAGWIPQDCKSIVQGAGFSPNDIIPFNIHYTDCGQTWTFCRHKNSPLSEINIIDIFGRLPVRMRQFVRHLVFVPGNKSAGSNGDNILMVGPVDVTVFIHEIGHSLDSHAFDPSYGVPFSTGNVWVSNYNLDSAVPDPYAQSSQQENFAQHTVVSIFDKVVPGGIGTIQPNWQAIFHQYATLEGYIGDTIIPGGTCTHRLTDSPPVTMASKRRGLGPKPKVALSPEVEEIESIPMKSTFKMTSFDEAGKPSGNYVINL
B5: IFF21333 (protein)
chain: RLDKPIINPTFPGGGLDSLAQGLLDHLAPTQSTHDNWGAGYIPEDCKNLAKSNGFSPFDITPFNIHYSDCNDVWIFCRHKDSPLSQIDMIDLFGRMPVHMREYIRHVIALPGNKSAGSSGDNIQMNGAVGITVFVHETGHSLDSHGFDPKYGVPFSNSKTWLDNYNMDTAVCDSYAQSSQQENLAQETVVGLYDKVVPGGVGNIQPNWKAIFHQYATVQGYLGDILTPGGTCRHRLANSKPVPMGDSAKFRRDLGPAPDVSLSSDVIEIESIPMGSSIRITEFDEAGNPIGSKNVSLVM
B6: IFF21332 (protein)
chain: ALNKPIINPQFPNGGLGSLGPGLMQHLQPAKRTWDKWGPGWIPEDCKNLAKSNNFSPFDITPFNIHYEDCPDSWVFCRHKDSPLSETAMIDMFGRMPVKMRSYIRHIIALPGTRSAGSAGDNIQMNGDCEITVFVHETGHSLDSHAFDPKYGAPFSNSKVWLDNYNQDSAVCDGYAQSSQQENLAQETVVGLFDKVVPGGVGTIQPNWKAIFHQYATVQGYLGDQILPGGTCSHRLTNSKPVPMGDSKKSRRGLGPAPDVSLSAHVTEIEPIAMGDSIVLTQYNDGGDAISKREVTLN
B7: IFF21359 (protein)
chain: TLDKPVIKPPFPNGGLGSLGPDLMSSLPIAAHTTTDWDADHLPRDCKTLAQGAGFSPLDVSAFDIHYDDCKAQPWVFCRHKDSPLSKTDMTELFGRLPVRMRQFIRHIIALPGQRSAGSAGDNIQMNGDCEITVFIHETGHSLDSHAFDPKLGVPFSNGKAWTDAYHKDTAVTDDYGRTSQQENFAQETVVSVYDKNVEGGIGKIQPNAQAIRNAYTTLETYIGNIIIPGGECTHRLENSPSVPKADSARTRLVARAEPVGEGLTRIEPVPFGPILSVRY
B8: IFF21360 (protein)
chain: RLDKPVIKPPFPNGGGLGSLGPDLMSSLPIAAHTTSDWDSDHLPRDCKRLAQSAGFSPLDVDAFNIRFDDCKQQPWVFCRHKDAPLSKSNMTELFGRLPVRMRQYIRHIIALPGQRSAGSAGDNIQMNGDCEITVFIHETGHSLDSHAFDPKHGVPFSNSPVWKDAYDKDTAVTDDYAQTSQQENFAQETVVAVYDKNVKGGGIGKIQPNAQAIRNAYTTLEKYIGDIIIPGGECTHRLENSPAVPKVDSARTRLVAKSEPVGEGLTRIEPIPMGPITLARY
B9: IFF21379 (protein)
chain: QLDKPALTSNLDYLLEGNTNNLPRNGGPYWGKWADGLMPADCKSIAESQGLNPTDFEVWDIFYNDCQDGWSFCRHKDSSDSFETLVETFGRVPVRMRSWVRHILTIPGPNWAFNSNGNIALSGTTSSNLDVALHETAHSLDLLGAYGNGALSSMQEWLNAYNRDSHVPDEYARSNQVENVAQNTVVAIYDKVVPGGFPGIQPNYQRIQNQYTLVQAKAGNQILPGGTCDRHLENSDTVPMSGLSLAYKLDSEKSRGVWHDSAFKGTYMNIVKEFTPFNTQEFHH
B10: IFF21342 (protein)
chain: NLNKPVITPNFPGNGLASLGQGLMDHLAPTHSTWDDWGAGWIPADCKSMVQGAGFSPNDIIPFNIHYDDCAQSWTFCRHKNSPLSEIQILDIFGRLPVRMRQFVRHLVFVPGNKSAGSNGDNVLMVGDVDVTVFAHEIGHSLDSHAFDPSYGVPFSTGNVWVSNYNLDSAVPDPYAQSSQQENFAQETVVSLYDKVVPGGIGTIQPNWQAIFHQYATLEGYIGNVIIPGGTCTHRLTDSPPVTMSGSKKSRRALGPKPKVSLSPKVKEIEAIPMESSITMTSFDEHGRPNGTYVINL
B11: IFF21338 (protein)
chain: NLNKPVITPNFPGNGLASLGPGLMNNLAPTHSTWDDWGAGWIPSDCKSMVQGAGFSPNDIIPFNIHYDDCAQTWTFCRHKNSPLSEIQILDIFGRLPVRMRQFVRHLVFVPGNKSAGSNGDNVLMVGDVDVTVFAHEIGHSLDSHAFDPSYGVPFSTGNVWVSNYNLDSAVPDPYAQSSQQENFAQQTVVSLYDKVVPGGIGTIQPNWQAIFHQYATLEGYIGNVIIPGGTCTHRLTDSAPVTMSGSKKSRRALGPKPKVSLSPEVKEIEAIPMESSITMTSFDEHGKPNGTYVIHL
B12: IFF21341 (protein)
chain: NLNKPVITPNFPGNGLASLGPGLMNNLAPTHSTWDDWGAGWIPSDCKSMVQGAGFSPNDIIPFNIHYDDCAQSWTFCRHKNSPLSEIQILDIFGRLPVRMRQFVRHLVFVPGNKSAGSNGDNVLMVGDVDVTVFAHEIGHSLDSHAFDPSYGVPFSTGNVWVSNYNLDSAVPDPYAQSSQQENFAQETVVSLYDKVVPGGIGTIQPNWQAIFHQYATLEGYIGNVIIPGGTCTHRLTDSAPVTMSGSKKSRRALGPKPKVSLSPKVKEIEAIPMESSITMTSFDEHGKPNGTYVVHL
B13: IFF21348 (protein)
chain: TLNKPVIQPNFPGGGLASLGPGLLNNLAITSSTSDVWGAGWIPADCKSLVQGAGLSPFDVIPFNIHLSDCSQTWTFCRHKNSPLSQTDIINLFARVPVRMRDFIRHFVFIPGATSAGSNGDNTLMVGNVDITVFLHEIGHSLDSHAFDPSYGVPFSTGNVWVSNYNLDSAVTDSYAQTSQQENFAQETVVSVYDKVVPGGIGTIQPNWQAIFHQYATLEGYIGNTIIPGGTCVNRLTDSQPVPMGNSAKFRRTMGPKPTVSLSPDVKEIKAIPMSDSITMTSFDEFGNVNGTYVIQL
B14: IFF21350 (protein)
chain: NLNKPVIQPNFPGNGLASLGQGILDHLAPTQSTWDDWGAGWIPQDCKSLAQGAGLSPNDIIPFNIHYADCAQTWTFCRHKNSPLSEVNIIDLFGRLPVRMRQFVRHLVFIPGNKSAGSNGDNVLMVGPVDITVFAHEIGHSLDSHAFDPSYGVPFSTGNVWVSNYNLDSAVPDPYAQSSQQENFAQHTVISIYDKAVPGGIGTIQPNWQAIFHQYATLEGYIGDIIIPGGTCTHRLTDSPPVTMASKRRALGPKPKVALSPEVEEIEAIPMKNTITMTSFDEAGKPNGSYVINL

Target: T1, IFF05588
T1 chain: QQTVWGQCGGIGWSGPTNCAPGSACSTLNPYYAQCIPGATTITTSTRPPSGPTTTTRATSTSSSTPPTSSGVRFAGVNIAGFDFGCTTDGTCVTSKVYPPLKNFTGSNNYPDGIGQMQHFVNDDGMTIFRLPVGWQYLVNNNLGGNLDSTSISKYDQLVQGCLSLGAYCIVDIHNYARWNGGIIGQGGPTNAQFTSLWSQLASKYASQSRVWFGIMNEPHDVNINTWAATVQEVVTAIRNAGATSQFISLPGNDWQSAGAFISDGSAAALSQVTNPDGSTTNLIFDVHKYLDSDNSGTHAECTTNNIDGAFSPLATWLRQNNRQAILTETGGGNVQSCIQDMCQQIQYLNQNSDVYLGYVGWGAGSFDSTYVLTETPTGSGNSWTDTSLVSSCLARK

First: B1
Second: B2
The Relative late peak area (centered, scaled, averaged over 5, 10 and 15 min) of the first is higher: 1.38 for the first, 1.34 for the second.

Compared with B3, B4 is lower in Relative late peak area (centered, scaled, averaged over 5, 10 and 15 min): 0.33 for the first, -0.57 for the second.

Compared with B5, B6 is higher in Relative late peak area (centered, scaled, averaged over 5, 10 and 15 min): 0.26 for the first, 0.3 for the second.

Going from B7 to B8, the Relative late peak area (centered, scaled, averaged over 5, 10 and 15 min) falls from 1.3 to -0.58.

Compared with B9, B10 is higher in Relative late peak area (centered, scaled, averaged over 5, 10 and 15 min): -0.02 for the first, 0.12 for the second.

Going from B11 to B12, the Relative late peak area (centered, scaled, averaged over 5, 10 and 15 min) falls from 1.11 to 1.03.

Going from B13 to B14, the Relative late peak area (centered, scaled, averaged over 5, 10 and 15 min) rises from 1.4 to 1.55.

First: B1
Second: B2
The Relative late peak area (centered, scaled, averaged over doses, 24 h; sample diluted 10-fold) of the first is higher: 0.97 for the first, 0.87 for the second.

Compared with B7, B11 is lower in Relative late peak area (centered, scaled, averaged over doses, 24 h; sample diluted 10-fold): 0.61 for the first, 0.59 for the second.

Going from B12 to B13, the Relative late peak area (centered, scaled, averaged over doses, 24 h; sample diluted 10-fold) rises from 0.62 to 0.68.

In the case of B14, the Relative late peak area (centered, scaled, averaged over doses, 24 h; sample diluted 10-fold) is reported as 1.06.

Compared with B1, B2 is higher in Relative late peak area (reverse phase chromatography, 24 h): 0.65 for the first, 0.67 for the second.

Compared with B5, B6 is higher in Relative late peak area (reverse phase chromatography, 24 h): 0.59 for the first, 0.65 for the second.

Going from B7 to B8, the Relative late peak area (reverse phase chromatography, 24 h) falls from 0.68 to 0.66.

Compared with B9, B11 is higher in Relative late peak area (reverse phase chromatography, 24 h): 0.45 for the first, 0.6 for the second.

Protein B14 has a Relative late peak area (reverse phase chromatography, 24 h) of 0.61.

Compared with B3, B5 is lower in Relative late peak area (centered, scaled, averaged over doses, 24 h; sample diluted 2-fold): 0.8 for the first, 0.69 for the second.

First: B6
Second: B9
The Relative late peak area (centered, scaled, averaged over doses, 24 h; sample diluted 2-fold) of the first is higher: 0.8 for the first, 0.75 for the second.

With B10 the Relative late peak area (centered, scaled, averaged over doses, 24 h; sample diluted 2-fold) was 0.73.

Going from B4 to B8, the Relative late peak area (centered, scaled, averaged over doses, 24 h; sample diluted 1-fold) falls from 0.66 to 0.62.
